Results reported in patent US8535662B2, “Apyrase therapy for bleeding conditions” (Apt Therapeutics, Inc., priority 2010, dated 2013).

Key:
[1] = tested on: rats, MCAO suture model with hyperglycemia; experiment: Hyperglycemic hemorrhagic transformation in rat focal ischemia (MCAO suture model) (Example 3); format: in vivo
Description: Focal ischemia was produced using the MCAO (Middle Cerebral Artery Occlusion) suture model in rats. Removal of the suture at 3.5 h after MCAO signaled the beginning of the reperfusion period. Ischemia-reperfusion causes blood extravasation into infracted brain tissues, showing multiple dots, small petechiae and more confluent petechial hemorrhage.
The animals were divided into three groups: […]
Rats were sacrificed at 8 h after MCAO and brains were frozen and cut into 20 μm frozen sections with intervals at 1 mm. The sections were stained with hematoxylin-eosin (HE) or cresyl violet. The H-E staining was used for measurements of hemorrhage rate and hemorrhage volume. The cresyl violet staining was used for quantifying infarct volume and brain swelling. An MCID™ digital image analysis system (Imaging Research, Inc, St. Catherines, Ontario, Canada) was used for quantifying hemorrhage and infarct volume.

[2] = tested on: ADP-induced platelet aggregation; experiment: Ex vivo ADP-induced platelet aggregation in platelet-rich plasma after dosing rabbits; design: species or system rabbit
Description: Blood samples taken at various time points were heparinized.
Data are presented as relative light transmission versus time.

F344 rats, lung graft = experiment: Airway administration of apyrase agent after rat lung graft (Example 10); format: in vivo; conditions: for PaO2: saline about 200; for neutrophil accumulation in lung graft airways: saline control 12×10^2
Description: F344 rat lung grafts were flushed and cold preserved in Apyrase agent solution (0.2 mg/L) and engrafted into syngeneic F344 recipients.
At 5 minutes post-reperfusion 1 ml apyrase agent solution (1 mg/kg) (N=6) or an equivalent volume of saline carrier was administered to the trachea at approximately 5 minutes post-reperfusion (N=7). In additional group of lung graft recipients that were treated with apyrase agent intratracheally, apyrase agent was also administered intravenously at 7 minutes post-reperfusion at 0.66 mg/kg (N=9). Lung graft oxygenation, airway cellularity and airway granulocyte numbers were measured 4 hours post-reperfusion. We noted no gross pulmonary hematomas in any treatment groups.

[3] = tested on: Fischer 344 rats, lung isograft; experiment: Orthotopic left lung transplantation in rats after 18 hours of cold preservation, ischemia-reperfusion injury (Example 9); format: in vivo, rat; conditions: for TUNEL positive EC per 400× field: 4 hours after reperfusion, 0.66 mg/kg, N=7/group
Description: Fischer 344 rats (Harlan Sprague Dawley, Inc, Indianapolis, Ind.), weighing 250 to 300 grams, were subjected to orthotopic left lung transplantation.
The cuff technique (Robson, S. C., et al., Semin. Thromb. Hemost. (2005) 31:217 was used. In brief, after general anesthesia with intraperitoneal pentobarbital (65 mg/kg), mechanical ventilation, systemic heparinization (300 units), and median laparosternotomy, donor rat lungs were flushed through the main pulmonary artery with 20 mL of cold (4° C.) low-potassium dextran glucose solution at 20 cm H2O pressure. In apyrase agent-treated groups, 0.1 mg/L apyrase agent was added to the cold preservation medium. The heart-lung block was then removed with the lungs inflated at end-tidal volume. The left lung graft was isolated, prepared, and stored in low-potassium dextran glucose at 4° C. until transplantation. After 18 hours of cold preservation, recipient animals were anesthetized, intubated with a 14-gauge catheter, and underwent a left thoracotomy. The pulmonary vessels and bronchus were anastomosed with a standard cuff technique. In the sham group, the rats underwent anesthesia and thoracotomy alone. In apyrase agent-treated groups recipients received treatment intravenously through the internal jugular vein 7 minutes after graft reperfusion. In dose response studies apyrase agent was administered at a dose of either 0.07, 0.22 or 0.66 mg/kg of recipient weight. In all other studies apyrase agent was administered at a dose of 0.66 mg/kg of recipient weight. In the vehicle-treated groups, rats received a saline bolus 7 minutes after reperfusion.
The function of the left lung was assessed 4 hours after transplantation. Rats in each group were reanesthetized with pentobarbital. After tracheostomy, the animals were mechanically ventilated with 100% oxygen and a laparosternotomy was performed. The right hilar structures were clamped to isolate the left lung graft. The animals were ventilated for 5 minutes at a tidal volume of 1.5 mL, a respiratory rate of 100 breaths/min, and 1.0 cm H2O of positive end-expiratory pressure. Arterial blood gas analysis was performed with blood samples obtained from the ascending aorta. The lungs were flushed with 20 mL of cold (4° C.) saline solution, and the lung graft was excised and divided into 3 separate sections. The upper and middle sections were snap frozen. The upper section was used for enzyme-linked immunosorbent assay (ELISA) and the middle section was used for myeloperoxidase (MPO) assay. The lower section was weighed, dried at 70° C. for 48 hours, and then reweighed for calculation of the wet/dry (W/D) ratio.
Quantitative MPO activity was determined also previously described (Krawisz, J. E., et al., Gastroenterology (1984) 87:1344). Optical density was measured at 460 nm with a spectrophotometer (model PMQ II; Carl Zeiss, Oberkochen, Germany). Color development was linear from 5 minutes to 20 minutes. One unit of enzyme activity was defined as 1.0 optical density unit per minute per milligram of tissue protein at room temperature.
Proinflammatory cytokine and chemokine measurement was made on lung samples which were homogenized with T-PER Extraction Reagent (Pierce, Rockford, Ill.). Lung homogenates were centrifuged twice at 10,000 rpm at 4° C. for 5 min, and the supernatants were collected. The content of tumor necrosis factor-α (TNF-α, interleukin-1β (IL-1β) and macrophage inflammatory protein-2 (MIP-2) were determined by using ELISA kits (BioSource International, Inc, Camarillo, Calif.) in accordance with manufacturer's instructions.
For TUNEL assay, lung specimens harvested 4 hours after reperfusion were perfused with 20 mL isotonic sodium chloride solution and inflation fixed with 20 mL HistoChoice (Amresco Inc, Solon, Ohio). Specimens were cut, mounted, de-paraffinized, and then steam-treated with Dako target retrieval solution (Dako, Carpentaria, Calif.) and quenched with 3% hydrogen peroxide. […]

[4] = tested on: pigs, coronary injury with stenting; conditions: pig, in vivo
[5] = tested on: dogs, coronary thrombotic occlusion; experiment: Canine coronary thrombosis and fibrinolysis model, adjunctive treatment with rtPA (Example 7); format: in vivo, dog; conditions: for decrease of infarct area compared to clopidogrel treatment: percent of left ventricular area or of area-at-risk, 24 hours of reperfusion
Description: Thrombotic occlusion was induced by electrical injury to a coronary artery in dogs. […] Buccal mucosa bleeding times, PT, and aPTT were measured as indices of bleeding risk. After 24 hours of reperfusion, infarct size was determined by Evan's blue and triphenyltetrazolium chloride double staining. This protocol is illustrated in FIG. 7.

B1: sol CD39L3 R67G T69R (protein)
chain: EVLPPGLKYGIVLDAGSSGTRVYVYQWPAEKENNTGVVSQTFKCSVKGSGISSYGNNPQDVPRAFEECMQKVKGQVPSHLHGSTPIHLGATAGMRLLRLQNETAANEVLESIQSYFKSQPFDFRGAQIISGQEEGVYGWITANYLMGNFLEKNLWHMWVHPHGVETTGALDLGGASTQISFVAGEKMDLNTSDIMQVSLYGYVYTLYTHSFQCYGRNEAEKKFLAMLLQNSPTKNHLTNPCYPRDYSISFTMGHVFDSLCTVDQRPESYNPNDVITFEGTGDPSLCKEKVASIFDFKACHDQETCSFDGVYQPKIKGPFVAFAGFYYTASALNLSGSFSLDTFNSSTWNFCSQNWSQLPLLLPKFDEVYARSYCFSANYIYHLFVNGYKFTEETWPQIHFEKEVGNSSIAWSLGYMLSLTNQIPAESPLIRLPIEPPV
modifications: glycosylated; synthetically constructed apyrase
hemorrhage volume in the striatum ([1]; 0.375 mg/kg IV at 3 h after MCAO (30 min before reperfusion), sacrifice at 8 h): 4.8±2.0 mm^3 | neurological function ([1]; 0.375 mg/kg, 4.5 hour after MCAO): significantly improved neurological function | inhibition of ADP-induced platelet aggregation ([2]; 0.75 mg/kg IV single bolus, 10 mM ADP): more than 95% | inhibition of ADP-induced platelet aggregation ([2]; 0.75 mg/kg IV, 6 h after dosing): 70% | time point after dosing at which strong effects were observed (onset of antiplatelet action) ([2]; apyrase agent 0.75 mg/kg IV): 5 min | PaO2 (F344 rats, lung graft; IT 1 mg/kg and IV 0.66 mg/kg, 4 hours post-reperfusion): ~320 mm Hg | reduction of neutrophils in the airway (F344 rats, lung graft; airway administration, 4 hours post-reperfusion): over 50% | neutrophil accumulation in lung graft airways (F344 rats, lung graft; airway alone): 5×10^2 neutrophils | neutrophil accumulation in lung graft airways (F344 rats, lung graft; airway and IV): 3×10^2 neutrophils | PaO2 (F344 rats, lung graft; intratracheally (IT) 1 mg/kg, 4 hours post-reperfusion): about 300 mm Hg | pulmonary edema (wet to dry weight ratio) ([3]; 0.22 mg/kg IV, 4 hours): trended to lower mean levels | lung function (arterial PO2) compared to saline-treated recipients ([3]; 0.22 mg/kg IV, 4 hours after transplantation): trend towards better lung function | lung graft histopathology (hematoxylin and eosin) compared to saline-treated recipients ([3]; 0.66 mg/kg IV 7 minutes after reperfusion): less apparent alveolar hemorrhage and microvascular injury | pulmonary edema (wet to dry weight ratio) ([3]; 0.66 mg/kg IV, 4 hours): significantly attenuated | lung function (arterial PO2) compared to saline-treated recipients ([3]; 0.66 mg/kg IV, 4 hours after transplantation): significant improvement | MPO activity in lung grafts ([3]; 4 hours): reduced | expression of E-selectin on endothelial cells ([3]; 4 hours): reduced | ADP concentration in the BAL fluid relative to saline-treated recipients ([3]; 4 hours after engraftment): significantly lower concentrations | ATP concentration in the BAL fluid relative to saline-treated recipients ([3]; 4 hours after engraftment): significantly lower concentrations | TUNEL positive EC per 400× field [3]: significantly fewer apoptotic EC | TUNEL positive EC per 400× field ([3]; listed as apyrase): three | numbers of neutrophils recovered from the airways ([3]; 4 hours after transplantation): significant decrease | total cells in the BAL ([3]; 4 hours after transplantation): significantly fewer cells | intragraft level of TNFa (ELISA) ([3]; 4 hrs of reperfusion, saline about 75): about 35 pg/mg | intragraft level of MIP-2 (ELISA) ([3]; 4 hrs of reperfusion, saline about 1,800): about 1,300 pg/mg | intragraft level of IL-1β (ELISA) ([3]; 4 hrs of reperfusion, saline about 2,200): about 1,100 pg/mg | blood loss from a standardized incision of the abdominal wall [4]: not increased | buccal mucosa bleeding time ([5]; dog, in vivo): no detectable change | reocclusion ([5]; dogs, apyrase agent at 1 mg/kg): completely prevented reocclusion | decrease of infarct area compared to clopidogrel treatment ([5]; dogs, high dose (1 mg/kg IV)): 90% | decrease of infarct area compared to clopidogrel treatment ([5]; dogs, low dose (0.25 mg/kg IV)): 80%
